The target of assay [1] is YFP-β3 (UniProt P54287). The assay is described as follows: FRET or BRET.
The target of assay [2] is YFP-β3 (UniProt P54287 1-484). Nature of the assay: FRET or BRET.
Sequence of YFP-β3 (UniProt P54287 1-484) (P54287 whole entry): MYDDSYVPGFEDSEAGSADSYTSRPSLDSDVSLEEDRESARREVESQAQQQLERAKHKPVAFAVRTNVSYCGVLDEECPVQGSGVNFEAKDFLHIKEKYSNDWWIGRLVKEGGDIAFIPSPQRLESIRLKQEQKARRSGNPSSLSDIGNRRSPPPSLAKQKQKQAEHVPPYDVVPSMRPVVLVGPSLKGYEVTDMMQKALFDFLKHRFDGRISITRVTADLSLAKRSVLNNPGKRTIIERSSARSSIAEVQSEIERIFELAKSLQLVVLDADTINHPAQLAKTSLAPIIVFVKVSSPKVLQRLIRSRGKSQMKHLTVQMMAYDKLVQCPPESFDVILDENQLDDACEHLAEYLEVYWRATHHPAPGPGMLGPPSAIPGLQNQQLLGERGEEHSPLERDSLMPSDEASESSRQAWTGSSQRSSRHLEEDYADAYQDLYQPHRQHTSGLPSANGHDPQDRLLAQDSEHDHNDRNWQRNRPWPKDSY

Sequence of YFP-β3 (UniProt P54287) (P54287 whole entry): as above

For “CFP-Rad (from UniProt P55042 1-308) (natural protein)”, the FRET efficiency in assay [1] was found to be 0.123. In assay [1], “CFP-Rad[R208A/L235A] (from UniProt P55042 1-308) (natural protein)” gave a fold decrease in affinity compared with CFP-Rad of 8 fold.

B1: CFP-Rem[R200A/L227A] (natural protein, UniProt O35929 1-297, looked up)
chain: MTLNTQQEAKTTLRRRASTPLPLSSRGHQPGRLCTAPSAPSQHPRLGQSVSLNPPVRKPSPAQDGWSSESSDSEGSWEALYRVVLLGDPGVGKTSLASLFAEKQDRDPHEQLGGVYERTLSVDGEDTTLVVMDTWEAEKLDESWCQESCLQAGSAYVIVYSIADRSSFESASELRIQLRRTHQANHVPIILVGNKADLAACREVSVEEGRACAVVFDCKFIETSATAQHNVTELFEGVVRQLRLRRQDNAAPETPSPRRRASLGQRARRFLARLTARSARRRALKARSKSCHNLAVL
As for B1, the “fold decrease in affinity compared with WT Rem” value in assay [2] came to 5 fold.

Source of the values: publication PMC6255209 (Proceedings of the National Academy of Sciences of the …, 2018).
